Laboratory results: doi:10.1101/2023.12.20.572533, “MUT-7 exoribonuclease activity and localisation are mediated by an ancient domain” (bioRxiv, 2023)
One block for each binder: values may come before it.

Tests used:
[1] = target: T1, MUT-8^NTD (1-235), purified (C. elegans, UniProt Q19672 1-235); assay: ITC; cell 46 µM MUT-8^NTD, syringe 600 µM MUT-16^584-724; 20 °C; 25 mM Tris/HCl pH 7.5, 150 mM NaCl, 0.25 mM TCEP; 19 injections of 2 µL; mean of three experiments; conditions: both partners purified
T1 construct: C. elegans MUT-8 N-terminal domain construct, residues 1-235
T1 sequence (looked up): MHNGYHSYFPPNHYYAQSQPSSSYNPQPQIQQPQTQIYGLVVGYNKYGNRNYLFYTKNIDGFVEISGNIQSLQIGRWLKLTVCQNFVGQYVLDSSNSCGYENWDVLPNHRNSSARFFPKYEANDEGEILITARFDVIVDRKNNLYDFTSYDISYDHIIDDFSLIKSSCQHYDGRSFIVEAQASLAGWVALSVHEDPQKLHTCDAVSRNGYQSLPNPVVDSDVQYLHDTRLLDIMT

[2] = target: T2, MUT-7FL/MUT-8CTD chain MUT-7FL;MUT-8CTD (Caenorhabditis elegans;Caenorhabditis …, UniProt P34607;Q19672 1-910;322-578, |); assay: fluorescence polarisation; 50 mM KCl, 5 mM EDTA; FP: 50 nM RNA, 20 mM HEPES/NaOH pH 7.5, 50 mM KCl, 5 mM EDTA (C. elegans) or 250 mM NaCl (human EXD3 and MUT-7 D435A), room temperature, 30 min; conditions: protein: recombinant;recombinant; copies: 1;1; label: 5'-FAM; single strand
T2 sequence 1: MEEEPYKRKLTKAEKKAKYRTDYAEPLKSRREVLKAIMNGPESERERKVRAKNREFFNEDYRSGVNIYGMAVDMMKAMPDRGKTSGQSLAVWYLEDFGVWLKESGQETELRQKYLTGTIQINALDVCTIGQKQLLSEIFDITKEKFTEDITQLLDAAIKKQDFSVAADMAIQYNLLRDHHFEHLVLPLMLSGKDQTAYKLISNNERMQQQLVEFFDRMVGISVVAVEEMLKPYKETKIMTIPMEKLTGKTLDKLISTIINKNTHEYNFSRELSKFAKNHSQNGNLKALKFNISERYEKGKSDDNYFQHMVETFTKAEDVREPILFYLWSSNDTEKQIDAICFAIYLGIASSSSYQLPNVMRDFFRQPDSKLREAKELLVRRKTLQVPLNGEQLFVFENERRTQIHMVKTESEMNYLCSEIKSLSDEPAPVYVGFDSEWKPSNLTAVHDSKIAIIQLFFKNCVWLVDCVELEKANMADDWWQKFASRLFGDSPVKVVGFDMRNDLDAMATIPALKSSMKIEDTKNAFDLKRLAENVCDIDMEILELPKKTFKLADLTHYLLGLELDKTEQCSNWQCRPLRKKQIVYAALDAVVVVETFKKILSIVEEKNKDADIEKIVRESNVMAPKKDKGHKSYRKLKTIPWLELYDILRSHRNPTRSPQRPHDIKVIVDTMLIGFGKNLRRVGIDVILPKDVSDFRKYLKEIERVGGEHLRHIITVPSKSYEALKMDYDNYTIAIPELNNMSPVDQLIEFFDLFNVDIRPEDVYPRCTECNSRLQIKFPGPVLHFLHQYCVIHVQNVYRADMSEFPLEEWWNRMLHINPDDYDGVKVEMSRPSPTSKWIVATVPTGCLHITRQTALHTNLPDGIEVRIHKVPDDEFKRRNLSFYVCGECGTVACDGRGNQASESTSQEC
T2 sequence 2: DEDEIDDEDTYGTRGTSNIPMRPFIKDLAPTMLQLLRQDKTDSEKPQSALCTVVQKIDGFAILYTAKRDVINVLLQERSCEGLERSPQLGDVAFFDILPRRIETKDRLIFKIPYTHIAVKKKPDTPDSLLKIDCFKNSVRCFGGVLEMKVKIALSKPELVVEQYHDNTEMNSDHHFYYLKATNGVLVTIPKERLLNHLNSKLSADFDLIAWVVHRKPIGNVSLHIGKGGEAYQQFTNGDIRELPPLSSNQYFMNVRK

[3] = target: T3, MUT-7^FL/MUT-8^FL complex (C. elegans, UniProt P34607 1-910; Q19672 1-578); assay: pull-down; purified proteins (5 µM), GST-tagged MUT-16 constructs as bait on glutathione resin; 20 mM HEPES/NaOH pH 7.5, 150 mM NaCl, 10% glycerol, 0.05% IGEPAL, 2 mM DTT; 4 °C; SDS-PAGE, Coomassie; conditions: both partners purified
T3 construct: C. elegans MUT-7, residues 1-910; C. elegans MUT-8 (RDE-2), residues 1-578; also called MUT-7/MUT-8; full-length MUT-7/MUT-8; source: E. coli BL21(DE3) derivative, co-expressed and purified as a complex through several chromatographic steps
T3 sequence (looked up) 1: T2 sequence 1
T3 sequence (looked up) 2: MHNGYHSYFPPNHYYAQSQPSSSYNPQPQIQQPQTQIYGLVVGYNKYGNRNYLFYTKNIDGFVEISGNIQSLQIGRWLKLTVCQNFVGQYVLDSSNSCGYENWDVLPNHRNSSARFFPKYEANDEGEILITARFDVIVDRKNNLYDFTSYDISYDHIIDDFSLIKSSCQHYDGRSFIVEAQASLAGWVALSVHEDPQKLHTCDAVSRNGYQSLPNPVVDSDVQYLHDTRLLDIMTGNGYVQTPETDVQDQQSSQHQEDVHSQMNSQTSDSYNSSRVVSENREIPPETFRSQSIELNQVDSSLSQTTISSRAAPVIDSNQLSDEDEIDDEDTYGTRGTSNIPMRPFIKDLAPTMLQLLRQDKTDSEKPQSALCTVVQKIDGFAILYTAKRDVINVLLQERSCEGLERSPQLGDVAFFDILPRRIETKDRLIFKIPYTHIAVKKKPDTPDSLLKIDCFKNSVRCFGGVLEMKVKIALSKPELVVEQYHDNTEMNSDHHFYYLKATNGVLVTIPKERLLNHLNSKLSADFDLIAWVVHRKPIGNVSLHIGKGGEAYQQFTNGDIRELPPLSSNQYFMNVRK

- Kd [1]: ~13 µM
B1: MUT-16^584-724, purified (SEC, ITC) (domain or fragment, C. elegans, UniProt O62011 584-724, looked up)
chain: KKKSESSATDTSNTPPVDTVNVALPTPVVESSSTTAAPSIPVSTRPEVVVPPENPAPLREVGNFYSKSNHDEDRRNVQLPFTPADTHKPIKVAPKEPVRNPLLKERPSANGFINRRLPSHPAPPPVNQSQPANQPMQTAVY
notes: source: E. coli BL21(DE3) derivative, purified (alone, or co-expressed with MUT-8^NTD and purified as a complex)

Binder: GUUGAUUGAAGAGUUC (ssRNA) [16-mer ssRNA]
- Kd [2]: 0.17 µM

- binding result [3]: binds
B2: GST-tagged MUT-16^1-724 (domain or fragment, C. elegans, UniProt O62011 1-724, looked up)
chain: MSESDDDYPELDISDQYIDPLGIVVGPPPASYTETDREETPMQNRTEDDTNSYGNSSGEHDYDSYLDSGDDDFDVDAYYANDNMDEPPPETIPDNLIQNVIGRNDNADYDFSDASNPEIMKRDLQLFLSSSLLSNPLKFRSGYSSDELDDCLKSCMGYSLQVTAVLLLPPEIISQLPNDSKTEHAHALVRGGWLQSKEGAFFPVISDSERETVVSLMNGSEEQHKRQERKKKEADTFESEEKEIRTLLTFNMIAELLMAVRNEYSIRSVKYQILSTAYTNMVTGAAHANIFRKYKDILQLDPEKLWNNDWFKEYTNRGTLKKFLTTARFSEIVVSQANGKTVELYFRADDEGNRPVVLFTDEHIADVRNKWKTGNQRNQNYGSQGNYRAGGQRSDDRRGPQQRRNVIVPDPNYQPSTFAGGISNNADDDGSLQPTTSSHFNRNTDRSTSRPPRAPTSPVNRVMETDPLMGQGTSSGAPQRSAIPNPFGGAPALSRSTITNGNRGPSYGDRGERVQDVGDTTSDSEITSEGSYSDEDPEQKEIKRQRRKDKLKKKQERELRSREKHTKSKQQPPSKIETRFNTYKKKSESSATDTSNTPPVDTVNVALPTPVVESSSTTAAPSIPVSTRPEVVVPPENPAPLREVGNFYSKSNHDEDRRNVQLPFTPADTHKPIKVAPKEPVRNPLLKERPSANGFINRRLPSHPAPPPVNQSQPANQPMQTAVY
notes: source: E. coli BL21(DE3) derivative, purified as GST-tagged fusion protein
